{
  "source": "patent US20220000998A1",
  "about": "(STRIKE PHARMA, published 2022)",
  "binders": {"B1": {"name": "X-SM083-bi-12 (bispecific antibody)", "heavy": "EVQLLESGGGLVQPGGSLRLSCAASGFTFSSYAMSWVRQAPGKGLEWVSGIGGSSSYTSYADSVKGRFTISRDNSKNTLYLQMNSLRAEDTAVYYCARYYSYHMDYWGQGTLVTVSSASTKGPSVFPLAPSSRSTSESTAALGCLVKDYFPEPVTVSWNSGALTSGVHTFPAVLQSSGLYSLSSVVTVPSSNFGTQTYTCNVDHKPSNTKVDKTVERKCCVECPPCPAPPVAGPSVFLFPPKPKDTLMISRTPEVTCVVVDVSHEDPEVQFNWYVDGVEVHNAKTKPREEQFNSTFRVVSVLTVVHQDWLNGKEYKCKVSNKGLPAPIEKTISKTKGQPREPQVYTLPPSREEMTKNQVSLTCLVKGFYPSDIAVEWESNGQPENNYKTTPPMLDSDGSFFLYSKLTVDKSRWQQGNVFSCSVMHEALHNHYTQKSLSLSPGKGGGGSGGGGSQVQLQQPGAELVMPGASVNLSCKASGYTFTDYWMHWVKQRPGQGLEWIGEIDPSDNFSNLNQNFRGKATLTVDKSSRTAFLQLSSLTSEDSAVYYCAVEDYWGQGTTLTVSSGGGGSGGGGSGGGGSGGGGSDIVMTQATPSVLVTPGEAVSISCRASRSLLHSNGITYLYWFLQRPGQSPQVLIYRMSNLVSGVPDRFSGSGSGTAFTLRISRVEAEDVGVYYCMQHLEFPYTFGGGTKLEIK", "light": "DIQMTQSPSSLSASVGDHVTITCRASQSISSYLNWYQQKPGKAPKLLIYAASSLQSGVPSRFSGSGSGTDFTLTISSLQPEDFATYYCQQYGSAPPTFGQGTKLEIK"}, "B2": {"name": "X-SM083-bi-9 (bispecific antibody)", "heavy": "not shown", "light": "B1 light"}},
  "target": "UU-30",
  "experiment": "cell-based or functional assay",
  "data": [
    {"binder": "B1", "values": [
      {"measurement": "t1/2 (min) of UU-30 in mouse plasma (LC-MS/MS)", "result": 424, "unit": "min"}
    ]},
    {"binder": "B2", "values": [
      {"measurement": "t1/2 (min) of UU-30 in mouse plasma (LC-MS/MS)", "result": 1340, "unit": "min"}
    ]}
  ]
}
